Here are results for four substances from paper PMC3988563.

The target in experiment [1] is Ribosome termination complex formed with wild-type RF1 (E. coli) (UniProt P0A7I0). As to the kind of experiment: quick spin gel-filtration assay (Sephadex G-100) with SYPRO Ruby staining; RF3 preincubated with 2 mM GDPNP, mixed with release complexes (10 nM to 2 uM, threefold excess RF1), 10 min 37 C, Buffer 219 HEPES pH 7.6; quadratic fit; KD with wild-type RF1 complexes is called apparent (K_D,app).

The target of experiment [2] is Ribosome termination complex formed with GAQ-RF1 (E. coli) (UniProt P0A7I0). Described as above.
In experiment [3] the target is Ribosome termination complex formed with wild-type RF1 (E. coli) (UniProt P0A7I0). As to the kind of experiment: quick spin gel-filtration assay (Sephadex G-100) with SYPRO Ruby staining; as a8, no nucleotide added to RF3 (copurified with GDP 1:1; 'apo' assay, no free GDP or GTP).
Experiment [4] has the same target. As to the kind of experiment: quick spin gel-filtration assay (Sephadex G-100) with SYPRO Ruby staining; as a8, RF3 preincubated with 2 mM GDP.
In experiment [5] the target is Ribosome termination complex formed with GAQ-RF1 (E. coli) (UniProt P0A7I0). Described as above.
For experiment [6], the target named is Ribosome termination complex (70S ribosomes, fMet-STOP mRNA and fMet-tRNA^fMet) (E. coli). As to the kind of experiment: other fluorescence titration; 1 nM fluorescein-labeled A220C RF1 titrated with ribosome complexes (0-52 nM) in 1X 219-HEPES buffer; excitation 491 nm, emission 515 nm; quadratic fit.
Experiment [7] has the same target. As to the kind of experiment: stopped-flow fluorescence; as a12, with RF3 preincubated with 1 mM GTP in the chase mixture.
For experiment [8] the target is unchanged. As to the kind of experiment: stopped-flow fluorescence; Fl-RF1 preincubated with ribosome complex, chased with excess unlabeled RF1, no RF3; Buffer 219 Tris pH 7.6, 26 C; double exponential fit, faster phase.
Experiment [9] shares this target. As to the kind of experiment: stopped-flow fluorescence; with RF3 preincubated with 1 mM GDP in the chase mixture.

Ribosome termination complex formed with wild-type RF1 (E. coli), sequence (P0A7I0 whole entry, looked up, one chain of several): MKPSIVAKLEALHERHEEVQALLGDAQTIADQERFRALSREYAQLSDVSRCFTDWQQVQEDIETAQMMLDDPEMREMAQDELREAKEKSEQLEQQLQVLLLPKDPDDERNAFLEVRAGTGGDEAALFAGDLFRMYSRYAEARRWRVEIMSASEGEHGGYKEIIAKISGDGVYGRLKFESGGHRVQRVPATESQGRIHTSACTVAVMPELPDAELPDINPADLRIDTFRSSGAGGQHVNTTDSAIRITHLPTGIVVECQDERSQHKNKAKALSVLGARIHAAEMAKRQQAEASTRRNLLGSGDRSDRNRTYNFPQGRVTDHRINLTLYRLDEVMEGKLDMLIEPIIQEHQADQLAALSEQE
His-tagged RF3 (class 2 release factor), sequence (P0A7I4 whole entry): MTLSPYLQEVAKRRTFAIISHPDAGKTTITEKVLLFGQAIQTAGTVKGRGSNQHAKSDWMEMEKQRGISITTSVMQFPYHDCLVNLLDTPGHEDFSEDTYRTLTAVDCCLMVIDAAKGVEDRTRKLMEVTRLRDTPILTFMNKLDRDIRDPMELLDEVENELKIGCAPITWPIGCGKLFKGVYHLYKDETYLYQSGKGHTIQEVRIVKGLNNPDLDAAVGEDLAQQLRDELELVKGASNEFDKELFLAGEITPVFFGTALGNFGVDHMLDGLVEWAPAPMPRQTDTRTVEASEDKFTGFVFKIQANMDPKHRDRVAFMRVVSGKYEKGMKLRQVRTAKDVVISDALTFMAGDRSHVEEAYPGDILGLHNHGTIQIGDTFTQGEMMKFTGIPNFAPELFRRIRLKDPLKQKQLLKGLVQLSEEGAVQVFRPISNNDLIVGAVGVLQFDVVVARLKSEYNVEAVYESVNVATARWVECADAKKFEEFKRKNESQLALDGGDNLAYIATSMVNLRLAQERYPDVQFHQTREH
Ribosome termination complex formed with GAQ-RF1 (E. coli), sequence (P0A7I0 whole entry, looked up, one chain of several): as the sequence (P0A7I0 whole entry, looked up, one chain of several) above

Consider “His-tagged RF3 (class 2 release factor) (from UniProt P0A7I4 1-529) (natural protein)”, for which the Kd came to 50 nM in experiment [1]; 10 nM in [2]; 36 nM in experiment [3]; 430 nM in experiment [4]; 1000 nM in [5].
Consider “Fluorescein-labeled A220C RF1 (from UniProt P0A7I0 1-360) (natural protein)”, for which the Kd in [6] was found to be 2.5 nM.
For “Fluorescein-labeled GAQ-RF1 (single-cysteine L82C or A220C) (from UniProt P0A7I0 1-360) (natural protein)”, in experiment [7], the koff in the presence of RF3:GTP was found to be 0.14 s⁻¹. Also, the koff in [8] is 0.09 s⁻¹.
“Fluorescein-labeled single-cysteine RF1 (either L82C or A220C) (from UniProt P0A7I0 1-360) (natural protein)”: the koff in the presence of RF3:GTP in [7] worked out at 2.9 s⁻¹. Also, the koff in the presence of RF3:GDP in experiment [9] came out at 0.3 s⁻¹. Besides, in experiment [8], the koff came to 0.005 s⁻¹.
